Biological target: the molecule itself
Test: fluorescence correlation spectroscopy

B1: HsSAS-6–[F131E] with a C-terminal GFP (natural protein, human, UniProt Q6UVJ0 1-657, looked up)
chain: MSQVLFHQLVPLQVKCKDCEERRVSIRMSIELQSVSNPVHRKDLVIRLTDDTDPFFLYNLVISEEDFQSLKFQQGLLVDFLAFPQKFIDLLQQCTQEHAKEIPRFLLQLVSPAAILDNSPAFLNVVETNPEKHLTHLSLKLLPGNDVEIKKFLAGCLKCSKEEKLSLMQSLDDATKQLDFTRKTLAEKKQELDKLRNEWASHTAALTNKHSQELTNEKEKALQAQVQYQQQHEQQKKDLEILHQQNIHQLQNRLSELEAANKDLTERKYKGDSTIRELKAKLSGVEEELQRTKQEVLSLRRENSTLDVECHEKEKHVNQLQTKVAVLEQEIKDKDQLVLRTKEAFDTIQEQKVVLEENGEKNQVQLGKLEATIKSLSAELLKANEIIKKLQGDLKTLMGKLKLKNTVTIQQEKLLAEKEEKLQKEQKELQDVGQSLRIKEQEVCKLQEQLEATVKKLEESKQLLKNNEKLITWLNKELNENQLVRKQDVLGPSTTPPAHSSSNTIRSGISPNLNVVDGRLTYPTCGIGYPVSSAFAFQNTFPHSISAKNTSHPGSGTKVQFNLQFTKPNASLGDVQSGATISMPCSTDKENGENVGLESKYLKKREDSIPLRGLSQNLFSNSDHQRDGTLGALHTSSKPTALPSASSAYFPGQLPNS
brightness relative to monomeric GFP: ~1.6 fold | stoichiometry N: 2

— paper PMC3941056 (The Journal of Cell Biology, 2014)
